Laboratory results published in patent US20020052313A1.

How the values were obtained:
[1] = molecular target: p75^NGFR (human, on B lymphocytes) (human) (UniProt P08138); test: equilibrium binding of 125I-NGF, Scatchard analysis, large (in vivo activated) human tonsil B cells, low-affinity class of sites
[2] = molecular target: low-affinity NGF binding sites on murine unfractionated sIg^+ B cells (mouse) (UniProt Q9Z0W1); test: equilibrium binding of 125I-NGF on acid-treated murine splenic B lymphocytes (unfractionated sIg+ cells), low-affinity sites
[3] = molecular target: high-affinity NGF binding sites on murine unfractionated sIg^+ B cells (mouse) (UniProt Q3UFB7); test: equilibrium binding of 125I-NGF on acid-treated murine splenic B lymphocytes (unfractionated sIg+ cells), high-affinity sites
[4] = molecular target: p75^NGFR (human, on B lymphocytes) (human) (UniProt P08138); test: equilibrium binding of 125I-NGF, Scatchard analysis, small resting human B lymphocytes after acid (pH 3.0) treatment, low-affinity receptors
[5] = molecular target: gp39 (CD40 ligand) (human) (UniProt P29965); test: cell-based or functional assay
UniProt P29965, sequence (P29965 whole entry): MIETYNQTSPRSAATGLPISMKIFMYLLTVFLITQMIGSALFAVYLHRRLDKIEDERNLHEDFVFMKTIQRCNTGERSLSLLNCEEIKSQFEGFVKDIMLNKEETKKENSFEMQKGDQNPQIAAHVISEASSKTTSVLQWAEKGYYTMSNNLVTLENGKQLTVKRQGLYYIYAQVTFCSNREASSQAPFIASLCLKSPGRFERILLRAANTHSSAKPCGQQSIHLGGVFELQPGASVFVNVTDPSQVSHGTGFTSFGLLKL

UniProt P08138, sequence (P08138 29-427): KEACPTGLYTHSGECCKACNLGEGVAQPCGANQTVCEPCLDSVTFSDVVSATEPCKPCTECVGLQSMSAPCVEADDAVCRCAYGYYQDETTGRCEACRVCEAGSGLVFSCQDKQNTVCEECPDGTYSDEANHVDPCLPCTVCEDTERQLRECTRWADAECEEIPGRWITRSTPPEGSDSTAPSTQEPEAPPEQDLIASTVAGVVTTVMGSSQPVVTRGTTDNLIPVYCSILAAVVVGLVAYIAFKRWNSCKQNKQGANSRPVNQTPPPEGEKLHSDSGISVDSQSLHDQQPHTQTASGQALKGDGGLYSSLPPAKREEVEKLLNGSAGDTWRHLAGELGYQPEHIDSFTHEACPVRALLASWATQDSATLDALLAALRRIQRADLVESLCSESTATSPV
UniProt Q3UFB7, sequence (Q3UFB7 34-799): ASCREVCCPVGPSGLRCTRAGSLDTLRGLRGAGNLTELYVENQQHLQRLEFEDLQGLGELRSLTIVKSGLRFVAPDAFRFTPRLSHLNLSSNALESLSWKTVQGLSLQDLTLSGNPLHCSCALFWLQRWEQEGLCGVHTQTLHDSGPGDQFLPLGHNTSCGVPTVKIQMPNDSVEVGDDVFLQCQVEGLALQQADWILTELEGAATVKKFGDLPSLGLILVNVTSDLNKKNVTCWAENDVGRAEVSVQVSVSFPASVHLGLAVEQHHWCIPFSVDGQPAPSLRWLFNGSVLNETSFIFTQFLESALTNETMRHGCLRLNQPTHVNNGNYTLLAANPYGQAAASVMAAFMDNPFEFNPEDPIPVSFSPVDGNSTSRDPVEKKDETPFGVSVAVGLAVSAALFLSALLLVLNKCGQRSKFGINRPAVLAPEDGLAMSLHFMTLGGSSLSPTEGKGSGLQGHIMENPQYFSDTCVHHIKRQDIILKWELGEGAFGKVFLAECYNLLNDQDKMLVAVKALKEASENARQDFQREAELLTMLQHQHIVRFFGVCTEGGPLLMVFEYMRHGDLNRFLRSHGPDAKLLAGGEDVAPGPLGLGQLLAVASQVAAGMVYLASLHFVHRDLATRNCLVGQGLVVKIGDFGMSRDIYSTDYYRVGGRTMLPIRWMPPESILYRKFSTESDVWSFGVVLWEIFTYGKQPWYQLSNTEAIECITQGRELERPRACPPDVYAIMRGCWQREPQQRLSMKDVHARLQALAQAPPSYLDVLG
UniProt Q9Z0W1, sequence (Q9Z0W1 32-427): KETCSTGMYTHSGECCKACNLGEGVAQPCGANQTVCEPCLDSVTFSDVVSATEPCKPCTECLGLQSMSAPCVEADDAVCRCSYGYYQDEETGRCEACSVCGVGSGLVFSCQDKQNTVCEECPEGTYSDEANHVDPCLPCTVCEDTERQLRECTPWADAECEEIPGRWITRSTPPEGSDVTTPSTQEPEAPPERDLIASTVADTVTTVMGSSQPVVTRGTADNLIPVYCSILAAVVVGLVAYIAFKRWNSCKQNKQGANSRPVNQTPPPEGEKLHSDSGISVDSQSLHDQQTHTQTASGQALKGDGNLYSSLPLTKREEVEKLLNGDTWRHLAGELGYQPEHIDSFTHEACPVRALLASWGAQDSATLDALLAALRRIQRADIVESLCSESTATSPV

| Kd [1] | binding sites/cell (binding sites/cell) [1] | Kd [2] | binding sites per cell (binding sites per cell) [2] | Kd [3] | binding sites per cell (binding sites per cell) [3] | Kd [4] | binding sites/cell (binding sites/cell) [4] | IgA (ng/ml) in supernatants of PWM-stimulated human PBMNC, PWM + CD40µ (CD4µ control 9,865) [5] | IgG (ng/ml) in supernatants of PWM-stimulated human PBMNC, PWM + CD40µ (CD4µ control 1,024) [5] | IgM (ng/ml) in supernatants of PWM-stimulated human PBMNC, PWM + CD40µ (CD4µ control 928) [5] | Substance |
| --- | --- | --- | --- | --- | --- | --- | --- | --- | --- | --- | --- |
| 1 nM | 1e+06 | 1.1 nM | 1e+06 | 0.135 nM | 4800 | 1 nM | 1e+06 |  |  |  | ^125I-NGF (Nerve Growth Factor, radio-iodinated, Amersham) (ligand) |
|  |  |  |  |  |  |  |  | 4790 ng/mL | 554 ng/mL | 1530 ng/mL | soluble CD40 pentamer (from UniProt P25942 21-193) |
